Patent US8236527B2, “Recombinant production of authentic human proteins using human cell expression systems” (Humanzyme Limited, priority 2008, dated 2012)

Experiments:
Assay type in all cases: cell-based
human CD4+ T cells = assay: IL-23 activity: IL-17 secretion from human CD4+ T cells (ELISA)
Description: (A) IL-23 activities determined by the dose-dependent secretion of IL-17 from mouse splenocytes activated with 10 ng/ml PMA. (B) IL-23 activities determined by the dose-dependent secretion of IL-17 from human CD4+ T cells stimulated with […] plate bound anti-CD3 and […] soluble anti-CD28 in the presence of Th17 polarizing cytokines.
FIG. 22: Efficient differentiation of Th17 cells with authentic cytokines expressed in human cells. Whole CD4+ T cells isolated from a healthy donor were stimulated with 2 μg/mL plate bound anti-CD3 and 1 μg/mL soluble anti-CD28 in the presence of Th17 polarizing cytokines, including a titration of IL-23. After 5 days, supernatants were harvested for measurement of IL-17 by ELISA. See (A)-(G). FIG. 22 (H) depicts flow cytometry analysis on Human Th17 Differentiation by Authentic human TGF-β1. See Example 17 below.
IL-17-producing CD4+ T cells (Th17 cells) have been identified as a unique subset of T helper cells that develop along a pathway that is distinct from the Th1 and Th2-cell differentiation pathways. This finding has provided exciting new insights into immunoregulation, host defense and the pathogenesis of autoimmune diseases. Recently it has been shown that TGF-β1, […], IL-6 and IL-23 are important in driving human Th17 differentiation (Chen & O'Shea (2008) Cytokines 41:71). […] The activities were further assayed with human CD4+ cells which were isolated from a healthy donor and stimulated with 10 μg/ml plate bound anti-CD3 and 10 μg/ml soluble anti-CD28 in the presence of Th17 polarizing cytokines. After 5 days supernatants were harvested for measurement of IL-17 by ELISA.

[1] = tested on: whole CD4+ cells from a healthy donor; assay: Th17 polarizing cytokines: IL-17 secretion from human CD4+ cells (ELISA); conditions: compared with cytokines from insect cell or bacterial expression system, 5 days
Source text: IL-17-producing CD4+ T cells (Th-17 cells) have been identified as a unique subset of Th cells that develop along a pathway that is distinct from the Th1, and Th2-cell differentiation pathways. This finding has provided exciting new insights into immunoregulation, host defense and the pathogenesis of autoimmune diseases. Recently it has been shown that IL1β, IL6 and IL23 are important in driving human Th17 differentiation. However, TGF-β1, which is important for the differentiation of murine Th17 cells, is reported to be not required, and even inhibits human Th17 differentiation (McGeachy & Cua (2008) Immunity 28:445, Chen & O'Shea (2008) Cytokines 41:71). In this study, whole […] cells isolated from a healthy donor were stimulated with 10 μg/mL plate bound anti-CD3 and 10 μg/ml soluble anti-CD28 in the presence of Th17 polarizing cytokines from the inventive human cell expression system and from an insect cell or bacterial expression system. After 5 days supernatants were harvested for measurement of IL-17 by ELISA.

mouse splenocytes = assay: IL-23 activity: dose-dependent secretion of IL-17 from mouse splenocytes activated with PMA; conditions: 10 ng/ml PMA

B1: authentic human IL-23: IL-23 from engineered human HEK293 cells, disulfide-linked heterodimer of 55 kD (protein, UniProt Q9NPF7 20-189; P29460 23-328, looked up)
Interleukin-23 subunit alpha: RAVPGGSSPAWTQCQQLSQKLCTLAWSAHPLVGHMDLREEGDEETTNDVPHIQCGDGCDPQGLRDNSQFCLQRIHQGLIFYEKLLGSDIFTGEPSLLPDSPVGQLHASLLGLSQLLQPEGHHWETQQIPSLSPSQPWQRLLLRFKILRSLQAFVAVAARVFAHGAATLSP
Interleukin-12 subunit beta: IWELKKDVYVVELDWYPDAPGEMVVLTCDTPEEDGITWTLDQSSEVLGSGKTLTIQVKEFGDAGQYTCHKGGEVLSHSLLLLHKKEDGIWSTDILKDQKEPKNKTFLRCEAKNYSGRFTCWWLTTISTDLTFSVKSSRGSSDPQGVTCGAATLSAERVRGDNKEYEYSVECQEDSACPAAEESLPIEVMVDAVHKLKYENYTSSFFIRDIIKPDPPKNLQLKPLKNSRQVEVSWEYPDTWSTPHSYFSLTFCVQVQGKSKREKKDRVFTDKTSATVICRKNASISVRAQDRYYSSSWSEWASVPCS
In the case of B1, the “fold more potent than the cytokine produced from insect cells (FIG. 21 heading)” value (human CD4+ T cells; assay not specified in the heading) is reported as 500 fold, the “concentration at which maximum induction of IL-17 secretion was achieved” value (human CD4+ T cells; human CD4+ cells, 5 days) is reported as 0.1 ng/mL and the “fold more potent for inducing IL-17 secretion than insect cell IL-23” value (human CD4+ T cells; human CD4+ cells, anti-CD3 and anti-CD28, Th17 polarizing cytokines, 5 days) is reported as 100 fold. For the same molecule, the “induction of IL-17 secretion” value [1] was “significantly more effective” and the “activity relative to insect cell IL-23, IL-17 secretion from mouse splenocytes” value (mouse splenocytes) was “ten fold more active”.
